Experimental data reported in doi:10.1101/2025.09.16.676457 (bioRxiv, 2025).

Biological target: T1, sLgBiT-Lc-GPR25 (without coexpression of TPST1 and TPST2) (Latimeria chalumnae (coelacanth), UniProt H3AQL3 1-365)
T1 sequence (looked up): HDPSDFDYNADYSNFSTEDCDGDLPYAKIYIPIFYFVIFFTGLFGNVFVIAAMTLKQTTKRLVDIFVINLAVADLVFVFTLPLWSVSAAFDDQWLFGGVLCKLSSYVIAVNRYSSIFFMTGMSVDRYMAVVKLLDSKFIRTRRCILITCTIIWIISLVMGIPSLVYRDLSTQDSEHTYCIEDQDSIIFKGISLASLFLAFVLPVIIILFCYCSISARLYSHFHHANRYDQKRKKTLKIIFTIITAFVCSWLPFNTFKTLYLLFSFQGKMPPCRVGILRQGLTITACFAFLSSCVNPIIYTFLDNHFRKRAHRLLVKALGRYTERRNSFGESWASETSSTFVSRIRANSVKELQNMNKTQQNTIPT
Assay: split reporter

B1: 6×His-Hs-CXCL17 (ligand, human, UniProt Q6UXB2 22-119, looked up)
chain: SSLNPGVARGHRDRGQASRRWLQEGGQECECKDWFLRAPRRKFMTVSGLPKKQCPCDHFKGNVKKTRHQRHHRKPNKHSRACQQFLKQCQLRSFALPL
Question: With B1 as the binder, how does the IC50 read?
Answer: ~400 nM
